What all share (assay): SPR
(In general: In SPR one partner is held on a chip, and binding of the other changes the refractive index at the surface.)

Assay [1] deals with T1, parasite-infected erythrocyte surface protein 15 (PIESP15), P. falciparum, recombinant ectodomain (P. falciparum, biotin (enzymatic monobiotinylation of the bait form)).
T1 chain: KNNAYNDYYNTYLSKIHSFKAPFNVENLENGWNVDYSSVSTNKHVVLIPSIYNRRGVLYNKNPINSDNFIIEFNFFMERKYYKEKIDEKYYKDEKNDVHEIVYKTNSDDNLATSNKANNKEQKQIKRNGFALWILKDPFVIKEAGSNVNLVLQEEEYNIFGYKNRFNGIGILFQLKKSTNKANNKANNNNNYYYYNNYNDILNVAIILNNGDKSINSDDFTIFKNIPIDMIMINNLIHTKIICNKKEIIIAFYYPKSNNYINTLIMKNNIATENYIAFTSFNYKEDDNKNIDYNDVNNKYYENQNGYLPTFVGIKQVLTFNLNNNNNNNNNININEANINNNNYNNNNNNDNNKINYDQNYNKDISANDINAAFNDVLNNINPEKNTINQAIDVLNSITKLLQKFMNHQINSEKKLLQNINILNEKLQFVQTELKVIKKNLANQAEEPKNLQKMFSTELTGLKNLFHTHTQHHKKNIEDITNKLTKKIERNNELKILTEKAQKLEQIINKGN

In assay [2] the target is T2, PF3D7_0721100, P. falciparum predicted secreted protein, recombinant (P. falciparum, biotin (enzymatic monobiotinylation)).
T2 chain: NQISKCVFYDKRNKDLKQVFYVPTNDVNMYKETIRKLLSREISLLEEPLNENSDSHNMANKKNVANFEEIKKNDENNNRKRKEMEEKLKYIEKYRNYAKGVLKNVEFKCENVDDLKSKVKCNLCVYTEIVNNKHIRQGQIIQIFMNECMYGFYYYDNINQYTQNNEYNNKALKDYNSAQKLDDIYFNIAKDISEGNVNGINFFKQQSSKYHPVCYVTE

In assay [3] the target is T3, PF3D7_0526900, P. falciparum p24 family protein, recombinant ectodomain (P. falciparum, biotin (enzymatic monobiotinylation of the bait form)).
T3 chain: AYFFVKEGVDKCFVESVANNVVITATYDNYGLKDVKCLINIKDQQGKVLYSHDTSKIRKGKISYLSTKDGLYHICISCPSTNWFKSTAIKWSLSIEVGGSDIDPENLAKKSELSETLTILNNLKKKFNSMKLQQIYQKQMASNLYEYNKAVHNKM

Results on 3 molecules are retold here after publication PMC7950211 (2021).

B1: PF3D7_0702900, P. falciparum secreted protein with tandem EF-hand domains, recombinant (natural protein)
chain: QDNKNKVEETHEEQGEMTQEEKDEIYSEFVDYDLNKDGLIDAEEIVVTLKNMKKADFINFFNKVDLDSSGTISIDEYMLFINSN
modifications: biotin (enzymatic monobiotinylation of the bait form)
In the case of B1, in assay [1], the koff – broadly, the rate constant with which the complex falls apart – turned out to be 0.035 s⁻¹.

B2: CelTOS, P. falciparum, recombinant (natural protein)
chain: FRGNNGHNSASSLYNGAQFIEQLNNAFTSAFLESQSMNKIGDDLAETISNELVSVLQKNSPTFLESSFDIKSEVKKHAKSMLKELIKVGLPSFENLVAENVKPPKVDPATYGIIVPVLTSLFNKVETAVGAKVSDEIWNYNSPDVSESEESLSDDFFD
modifications: biotin (enzymatic monobiotinylation of the bait form)
For B2, the koff in assay [2] is 0.025 s⁻¹.

B3: PF3D7_0422100, P. falciparum p24 family protein, recombinant ectodomain (domain or fragment)
chain: NFVLSNANTNNVNKNGANKKNNANNNNMNKAGDKKKATKGKKGNANDNVNEFNFNFNDLLNEINNAATNDNNNNNNDNNNDNNNNNNNNNNNYNGKNEINENNFNEEYNKLEKNFQMNAEDDDNNRGDINMDQFNEKKNNLNEDNNKMKPNANDYQYNENDADTDSEEDLTNIWNKNMQNFEPSTLLTFEIPSNSEEYLFEEVPEVNTYFRGVFYSNNEADDNIIEFLISDPDGQVIYKKEASEGIFYFYTKKVGIYTLTLKNNKWMGKKLTTVALGLGENPSLRSDHVKDFTNYIQRIVAETKKLKNEIKYLSSKHMRHIEKMKKITNK
modifications: biotin (enzymatic monobiotinylation of the bait form)
With B3, the dissociation rate constant (koff) in assay [3] is 0.23 s⁻¹.
